# Results reported in patent US20210324359A1, “USE OF GRAM-NEGATIVE LYSIN-ANTIMICROBIAL PEPTIDE (AMP) POLYPEPTIDE CONSTRUCTS IN TREATING ENDOCARDITIS” (priority 2020, published 2021).
# Where two headings read alike, the source gives them in different places.
# B1: GN333: lysin obtained from Delftia sp. (SEQ ID NO: 28) (protein, listed as Delftia sp.)
# chain: MALTEQDFQSAADDLGVDVASVKAVTKVESRGSGFLLSGVPKILFERHWMFKLLKRKLGRDPEINDVCNPKAGGYLGGQAEHERLDKAVKMDRDCALQSASWGLFQIMGFHWEALGYASVQAFVNAQYASEGSQLNTFVRFIKTNPAIHKALKSKDWAEFARRYNGPDYKKNNYDVKLAEAYQSFK
# B2: GN329: lysin, SEQ ID NO: 26 (protein)
# chain: MITDREYQQAAEMLGVDVPAIKAVTKVEAPVGGFQPTGEPTILYERHQMYRQLQAKGLPTEGHPPDLVNKVAGGYGKYSEQHAKLARAVKIDRDSALESCSWGMFQIMGYHWKLMGYPTLQAFVNAMYASEGAQMDAFCRFIKAQPTTHAALKAHDWAKFARLYNGPGYAKNKYDVKLEKAYAEASG
# modifications: Pseudomonas phage KPP10
# B3: GN156: GPRRPRRPGRRAPV introduced at the N terminus of GN4 (SEQ ID NO: 126) (protein)
# chain: GPRRPRRPGRRAPVRTSQRGIDLIKSFEGLRLSAYQDSVGVWTIGYGTTRGVTRYMTITVEQAERMLSNDIQRFEPELDRLAKVPLNQNQWDALMSFVYNLGAANLASSTLLKLLNKGDYQGAADQFPRWVNAGGKRLDGLVKRRAAERALFLEPLS
# B4: GN316: lysin obtained from Klebsiella phage 0507-KN2-1 (SEQ ID NO: 22) (protein)
# chain: MAILKIGSKGLEVKNLQTSLNKIGFNLVADGIFGKATDNAVRAVQAGAGLVVDGIAGPKTMYAIRNAGESHQDHLTEADLIDAARELSVDLASIKAVNQVESRGTGFTKSGKIKTLFERHIMYKKLNAKFGQAKANALAQLYPTLVNAKAGGYTGGDAELERLHGAIAIDKDCAYESASYGLFQIMGFNCVICGYDNAEEMFNDFLTGERAQLMAFVKFIKADANLWKALKDKNWAEFARRYNGPAYAQNQYDTKLAAAYKSFS
# modifications: (1)..(264) GN316 lysin
# B5: GN123: lysin obtained from Pseudomonas phage PhiPA3 (SEQ ID NO: 173) (protein)
# chain: MTLLKKGDKGDAVKQLQQKLKDLGYTLGVDGNFGNGTDTVVRSFQTKMKLSVDGVVGNGTMSTIDSTLAGIKAWKTSVPFPATNKSRAMAMPTLTEIGRLTNVDPKLLATFCSIESAFDYTAKPYKPDGTVYSSAEGWFQFLDATWDDEVRKHGKQYSFPVDPGRSLRKDPRANGLMGAEFLKGNAAILRPVLGHEPSDTDLYLAHFMGAGGAKQFLMADQNKLAAELFPGPAKANPNIFYKSGNIARTLAEVYAVLDAKVAKHRA
# modifications: Pseudomonas phage PhiPA3
# What was measured:
# [1] = test system: Staphylococcus aureus; assay: Daptomycin MIC with […], positive control (Table 10); assay type: cell-based; conditions: for fold increase in MIC with SURVANTA: Staphylococcus aureus
# Procedure: As a positive control, the impact of […] ® on daptomycin (DAP) activity against Staphylococcus aureus was also tested.
# [2] = test system: P. aeruginosa; assay: MIC, modified CLSI broth microdilution in CAA medium without or with […] human serum (Table 4); assay type: cell-based, Pseudomonas aeruginosa; conditions: for CAA MIC: CAA medium, no human serum; for CAA/HuS MIC: CAA supplemented with […] human serum; on CAA/HuS MIC: CAA supplemented with 2.5% human serum
# Excerpt: 2015. […] Clinical and Laboratory Standards Institute, Wayne, Pa.
# [3] = test system: Pseudomonas aeruginosa strain CFS-1292 (meropenem resistant); conditions: for MIC in 25% CAA: strain CFS-1292, no added cations; for Fold Increase (MIC) in presence of cations: CFS-1292
# Procedure: The activity of selected GN lysins and constructs in the presence of divalent cations was evaluated, and the impact of divalent cations at physiological concentrations was examined in the MIC assay format.
# [4] = test system: P. aeruginosa strain WC-453; assay: Time-kill assay in HEPES or CAA with 25% human serum (Tables 7, 8); assay type: cell-based, Pseudomonas aeruginosa; conditions: for bactericidal activity (CFU decrease of 3-Log10, 3 hours after the addition of lysin): 10 μg/mL, enumerated lysins in CAA/HuS, general statement for HEPES and CAA/HuS; for CAA/HuS (Log10 CFU/mL), 1 hr / CAA/HuS (Log10 CFU/mL), 3 hr: CAA + 25% human serum, lysin 10 μg/ml, WC-453
# Procedure: Exponential phase bacteria were then pelleted and resuspended in 1/5 culture volume of 25 mM HEPES, pH 7.4 before a final adjustment to an optical density corresponding to a McFarland value of 0.5. […] All treatments were incubated at 37° C. with aeration. At time points before the addition of lysin (or buffer control) and at 1 hour and 3 hours intervals thereafter, culture samples were removed for quantitative plating on CAA agar plates.
# [5] = test system: biofilms formed by P. aeruginosa strain ATCC 17646; conditions: strain ATCC 17646 biofilm
# Procedure: Biofilms are then washed and treated with e.g., a 2-fold dilution series of the lysin in TSBg at e.g., 37° C. for 24 hours. After treatment, wells are washed, air-dried at e.g., 37° C. and stained with e.g., 0.05% crystal violet for 10 minutes.
# [6] = test system: P. aeruginosa isolate CFS-1292; assay: MIC in CAA supplemented with a range of […] concentrations (Table 10); assay type: cell-based, Pseudomonas aeruginosa
# [7] = test system: carbepenam-resistant clinical isolate WC-453; assay: MIC in CAA without or with 25% human serum (Table 5); assay type: cell-based, Pseudomonas aeruginosa
# Procedure: MIC values were determined using a modification of the standard broth microdilution reference method defined by the Clinical and Laboratory Standards Institute (CLSI), CLSI. […] Methods for Dilution Antimicrobial Susceptibility Tests for Bacteria That Grow Aerobically; Approved Standard-10th Edition. Clinical and Laboratory Standards Institute, Wayne, Pa.
# [8] = test system: carbapenem-resistant P. aeruginosa strains; assay: Resensitization of carbapenem-resistant strains, combinations with imipenem or meropenem (Tables 18-22); assay type: cell-based, Pseudomonas aeruginosa
# Procedure: Such resensitization may be determined by combining the present lysins or lysin-AMP polypeptide constructs with an antibiotic in a checkerboard assay as described herein. Antibiotic-resistant bacteria, such as carbapenem-resistant P. aeruginosa, are added to the lysin or lysin-AMP polypeptide construct combination. […] See Clinical and Laboratory Standards Institute (CLSI), CLSI. […] M100 Performance Standards for Antimicrobial Susceptibility Testing; 29th Edition. Clinical and Laboratory Standards Institute, Wayne, Pa., which is herein incorporated by reference in its entirety.
# Up to seven carbapenem-resistant isolates were assessed. […] See Clinical and Laboratory Standards Institute (CLSI), CLSI. […] M100 Performance Standards for Antimicrobial Susceptibility Testing; 29th Edition. Clinical and Laboratory Standards Institute, Wayne, Pa.
# [9] = 25% CAA + […] CaCl2 and […] MgCl2
molecule,measurement,setting,value
daptomycin,fold increase in MIC with SURVANTA,[1]; 0.09% SURVANTA,32 fold
same,fold increase in MIC with SURVANTA,[1]; 0.19% SURVANTA,32 fold
same,fold increase in MIC with SURVANTA,[1]; 1.56% SURVANTA,128 fold
same,fold increase in MIC with SURVANTA,[1]; 3.15% SURVANTA,128 fold
same,inhibition by pulmonary surfactant,"[1]; SURVANTA 0.09-[…], S. aureus",inhibitory to the activity of DAP
B1,CAA MIC,[2],8000 µg/mL
same,CAA/HuS MIC,[2],60 µg/mL
same,MIC in 25% CAA,[3],8 µg/mL
same,"bactericidal activity (CFU decrease of 3-Log10, 3 hours after the addition of lysin)",[4],bactericidal activity
same,"CAA/HuS (Log10 CFU/mL), 1 hr",[4],4.9 Log10 CFU/mL
same,"CAA/HuS (Log10 CFU/mL), 3 hr",[4],<3.7 Log10 CFU/mL
same,MBEC,[5],1 µg/mL
B2,CAA MIC,[2],4000 µg/mL
same,CAA/HuS MIC,[2],250 µg/mL
same,MIC in 25% CAA,[3],4 µg/mL
same,"bactericidal activity (CFU decrease of 3-Log10, 3 hours after the addition of lysin)",[4],bactericidal activity
same,"CAA/HuS (Log10 CFU/mL), 1 hr",[4],4.4 Log10 CFU/mL
same,"CAA/HuS (Log10 CFU/mL), 3 hr",[4],<3.7 Log10 CFU/mL
same,MBEC,[5],0.5 µg/mL
B3,Fold Increase (MIC) in presence of cations,[3]; 25% CAA + […] CaCl2 (high),1 fold
same,Fold Increase (MIC) in presence of cations,[3]; 25% CAA + […] CaCl2 (low),2 fold
same,Fold Increase (MIC) in presence of cations,[3]; 25% CAA + […] CaCl2 (medium),2 fold
same,Fold Increase (MIC) in presence of cations,[3]; [9],2 fold
same,Fold Increase (MIC) in presence of cations,[3]; 25% CAA + […] MgCl2 (high),2 fold
same,Fold Increase (MIC) in presence of cations,[3]; 25% CAA + […] MgCl2 (low),2 fold
same,Fold Increase (MIC) in presence of cations,[3]; 25% CAA + […] MgCl2 (medium),2 fold
same,MIC in 25% CAA,[3],2 µg/mL
same,fold increase in MIC with SURVANTA,[6]; 0.09% SURVANTA,1 fold
same,fold increase in MIC with SURVANTA,[6]; 0.19% SURVANTA,1 fold
same,fold increase in MIC with SURVANTA,[6]; 1.56% SURVANTA,2 fold
same,fold increase in MIC with SURVANTA,[6]; 3.15% SURVANTA,2 fold
B4,CAA MIC,[2],16000 µg/mL
same,CAA/HuS MIC,[2],125 µg/mL
same,activity in CAA supplemented with human serum (25%),[7],active
same,CAA MIC,[7]; CAA,16
same,CAA/HuS MIC,[7]; CAA supplemented with 25% human serum,<0.0625
same,MIC in 25% CAA,[3],4 µg/mL
same,"bactericidal activity (CFU decrease of 3-Log10, 3 hours after the addition of lysin)",[4],bactericidal activity
same,"CAA/HuS (Log10 CFU/mL), 1 hr",[4],5.1 Log10 CFU/mL
same,"CAA/HuS (Log10 CFU/mL), 3 hr",[4],<3.7 Log10 CFU/mL
same,MBEC,[5],1 µg/mL
B5,Fold Increase (MIC) in presence of cations,[3]; 25% CAA + […] CaCl2 (high),1 fold
same,Fold Increase (MIC) in presence of cations,[3]; 25% CAA + […] CaCl2 (low),1 fold
same,Fold Increase (MIC) in presence of cations,[3]; 25% CAA + […] CaCl2 (medium),1 fold
same,Fold Increase (MIC) in presence of cations,[3]; [9],1 fold
same,Fold Increase (MIC) in presence of cations,[3]; 25% CAA + […] MgCl2 (high),1 fold
same,Fold Increase (MIC) in presence of cations,[3]; 25% CAA + […] MgCl2 (low),1 fold
same,Fold Increase (MIC) in presence of cations,[3]; 25% CAA + […] MgCl2 (medium),1 fold
same,MIC in 25% CAA,[3],2 µg/mL
same,fold increase in MIC with SURVANTA,[6]; 0.09% SURVANTA,1 fold
same,fold increase in MIC with SURVANTA,[6]; 0.19% SURVANTA,1 fold
same,fold increase in MIC with SURVANTA,[6]; 1.56% SURVANTA,1 fold
same,fold increase in MIC with SURVANTA,[6]; 3.15% SURVANTA,2 fold
same,resensitization to carbapenems in synergistic combinations,"[8]; imipenem (IPM) and meropenem (MEM), carbapenem-resistant isolates",reductions of IPM and MEM MICS to below breakpoint values
same,"lysin MIC, Combination","[8]; in combination with imipenem, isolate PA19",0.125 µg/mL
same,"lysin MIC, Combination","[8]; in combination with imipenem, isolate PA20",2 µg/mL
same,"lysin MIC, Combination","[8]; in combination with imipenem, isolate PA21",1 µg/mL
same,"lysin MIC, Combination","[8]; in combination with imipenem, isolate PA22",1 µg/mL
same,"lysin MIC, Combination","[8]; in combination with imipenem, isolate PA23",2 µg/mL
same,"lysin MIC, Combination","[8]; in combination with imipenem, isolate PA24",2 µg/mL
same,"lysin MIC, Combination","[8]; in combination with imipenem, isolate WC-452",2 µg/mL
same,"lysin MIC, Combination","[8]; in combination with meropenem, isolate PA19",0.25 µg/mL
same,"lysin MIC, Combination","[8]; in combination with meropenem, isolate PA20",1 µg/mL
same,"lysin MIC, Combination","[8]; in combination with meropenem, isolate PA21",1 µg/mL
same,"lysin MIC, Combination","[8]; in combination with meropenem, isolate PA22",1 µg/mL
same,"lysin MIC, Combination","[8]; in combination with meropenem, isolate PA23",1 µg/mL
same,"lysin MIC, Combination","[8]; in combination with meropenem, isolate PA24",0.5 µg/mL
same,"lysin MIC, Combination","[8]; in combination with meropenem, isolate WC-452",1 µg/mL
same,"MIC, Alone",[8]; isolate PA19,8 µg/mL
same,"MIC, Alone",[8]; isolate PA20,16 µg/mL
same,"MIC, Alone",[8]; isolate PA21,8 µg/mL
same,"MIC, Alone",[8]; isolate PA22,16 µg/mL
same,"MIC, Alone",[8]; isolate PA23,8 µg/mL
same,"MIC, Alone",[8]; isolate PA24,16 µg/mL
same,"MIC, Alone",[8]; isolate WC-452,16 µg/mL
same,FICI,"[8]; lysin + imipenem, isolate PA19",0.03
same,FICI,"[8]; lysin + imipenem, isolate PA20",0.188
same,FICI,"[8]; lysin + imipenem, isolate PA21",0.141
same,FICI,"[8]; lysin + imipenem, isolate PA22",0.188
same,FICI,"[8]; lysin + imipenem, isolate PA23",0.281
same,FICI,"[8]; lysin + imipenem, isolate PA24",0.188
same,FICI,"[8]; lysin + imipenem, isolate WC-452",0.188
same,FICI,"[8]; lysin + meropenem, isolate PA19",0.046
same,FICI,"[8]; lysin + meropenem, isolate PA20",0.094
same,FICI,"[8]; lysin + meropenem, isolate PA21",0.156
same,FICI,"[8]; lysin + meropenem, isolate PA22",0.125
same,FICI,"[8]; lysin + meropenem, isolate PA23",0.156
same,FICI,"[8]; lysin + meropenem, isolate PA24",0.094
same,FICI,"[8]; lysin + meropenem, isolate WC-452",0.125
